The experiment addresses T1, Purified recombinant human GRK2 (G protein-coupled receptor kinase 2) (human, UniProt P25098 1-689).
T1 sequence (looked up): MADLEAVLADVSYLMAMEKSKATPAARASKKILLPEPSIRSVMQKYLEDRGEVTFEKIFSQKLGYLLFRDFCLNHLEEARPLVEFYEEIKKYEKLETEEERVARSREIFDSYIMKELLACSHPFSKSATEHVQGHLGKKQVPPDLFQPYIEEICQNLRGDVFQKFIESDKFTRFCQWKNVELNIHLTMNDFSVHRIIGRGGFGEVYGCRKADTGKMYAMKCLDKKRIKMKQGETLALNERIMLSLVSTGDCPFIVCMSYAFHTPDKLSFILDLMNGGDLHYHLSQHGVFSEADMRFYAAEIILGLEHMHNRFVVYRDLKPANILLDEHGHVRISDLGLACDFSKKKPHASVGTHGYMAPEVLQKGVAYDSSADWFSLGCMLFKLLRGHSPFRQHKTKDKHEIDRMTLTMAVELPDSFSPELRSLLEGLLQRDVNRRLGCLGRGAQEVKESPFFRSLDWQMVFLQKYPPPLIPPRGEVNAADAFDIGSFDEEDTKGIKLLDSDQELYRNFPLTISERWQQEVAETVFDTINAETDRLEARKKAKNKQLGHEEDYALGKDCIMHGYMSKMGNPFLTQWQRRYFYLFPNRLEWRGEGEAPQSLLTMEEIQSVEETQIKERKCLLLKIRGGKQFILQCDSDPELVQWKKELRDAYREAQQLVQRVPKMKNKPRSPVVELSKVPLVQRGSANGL
Nature of the experiment: pull-down.

The values below come from publication PMC3121171 (Forum on immunopathological diseases and therapeutics, 2011).

B1: His-tagged human RKIP-1/PEBP-1 (Raf kinase inhibitor protein) (natural protein)
chain: MPVDLSKWSGPLSLQEVDEQPQHPLHVTYAGAAVDELGKVLTPTQVKNRPTSISWDGLDSGKLYTLVLTDPDAPSRKDPKYREWHHFLVVNMKGNDISSGTVLSDYVGSGPPKGTGLHRYVWLVYEQDRPLKCDEPILSNRSGDHRGKFKVASFRKKYELRAPVAGTCYQAEWDDYVPKLYEQLSGK
Turning to B1, the binding result is listed as “binds”.
